{"source": "patent US9969998B2", "about": "“Compositions of adenosine deaminase-2 (ADA2), variants thereof and methods of using same” (Halozyme, Inc., priority 2014, dated 2018)", "molecules": {"B1": {"name": "ADA2: wild-type human adenosine deaminase 2, mature form SEQ ID NO:5, homodimer (protein, listed as Homo sapiens)", "chain": "IDETRAHLLLKEKMMRLGGRLVLNTKEELANERLMTLKIAEMKEAMRTLIFPPSMHFFQAKHLIERSQVFNILRMMPKGAALHLHDIGIVTMDWLVRNVTYRPHCHICFTPRGIMQFRFAHPTPRPSEKCSKWILLEDYRKRVQNVTEFDDSLLRNFTLVTQHPEVIYTNQNVVWSKFETIFFTISGLIHYAPVFRDYVFRSMQEFYEDNVLYMEIRARLLPVYELSGEHHDEEWSVKTYQEVAQKFVETHPEFIGIKIIYSDHRSKDVAVIAESIRMAMGLRIKFPTVVAGFDLVGHEDTGHSLHDYKEALMIPAKDGVKLPYFFHAGETDWQGTSIDRNILDALMLNTTRIGHGFALSKHPAVRTYSWKKDIPIEVCPISNQVLKLVSDLRNHPVATLMATGHPMVISSDDPAMFGAKGLSYDFYEVFMGIGGMKADLRTLKQLAMNSIKYSTLLESEKNTFMEIWKKRWDKFIADVATK", "modifications": "ADA2 mature protein"}, "B2": {"name": "R23E: ADA2 variant SEQ ID NO:30 (protein)", "chain": "B1 chain with R20E", "modifications": "human ADA2 R20E, mature numbering"}, "B3": {"name": "PEG-K374D: rHuADA2-K374D (SEQ ID NO:20) PEGylated on surface exposed lysines with linear PEG-20K (conjugate)", "chain": "B1 chain with K371D", "modifications": "linear PEG-20K on surface lysines; human ADA2 K371D, mature numbering"}, "B4": {"name": "WT ADA2: wild type recombinant human adenosine deaminase 2 with FLAG tag, mature ADA2 SEQ ID NO:5 (protein, listed as Homo sapiens)", "chain": "B1 chain", "modifications": "FLAG tag; ADA2 mature protein"}}, "key": {"[1]": {"system": "mixture of NK and T (NK/T) cells", "test": "T-cell or NK/T cell proliferation assay in the presence of adenosine", "assay_type": "cell-based", "source_text": "Reversal of adenosine-mediated immunosuppression by any ADA2 provided herein, including wildtype and variants, conjugates and other modified forms thereof, and combination therapy using any ADA2 provided herein and other agents, can be examined in vitro, for example, by performing proliferation assays. Such assays include, but are not limited to T-cell proliferation assays or a mixture of NK and T (NK/T) cell proliferation assays, in the presence of adenosine and/or any ADA2 provided herein and/or any other combination therapy agents. For example, the immunosuppressive effect of adenosine on various immune cells, such as lymphocytes, natural killer (NK) cells, polymorphonuclear granulocytes, and phagocytic cells such as tissue macrophages, can be assessed by proliferation assays using the immune cells or mixtures thereof, such as the mixture of NK and T (NK/T) cells prepared from peripheral blood mononuclear cells (PBMC). The effect of any ADA2 provided herein and any other combination therapy agents provided herein, can be assessed by comparing the results of such proliferation assays in the presence of adenosine, with or without the addition of any ADA2 provided herein and/or any other combination therapy agents provided herein, including immune checkpoint inhibitors. Combination therapy agents are described in Section H.4 below. […]"}, "[2]": {"system": "CT26 murine primary colon carcinoma", "test": "CT26 syngeneic tumor model", "parameters": "species or system BALB/c mice", "settings": "mouse", "experimental": "Exemplary of an animal tumor model that can be used to assess the effect of cancer treatment using ADA2 provided herein is the CT26 syngeneic tumor model. This model is created by subcutaneous injection of CT26 murine primary colon carcinoma (ATCC CRL-2638) cells into syngeneic BALB/c mice. The mice are staged until the tumor is established, then the agent used for treatment, such as any ADA2 provided herein or combination therapy including ADA2 treatment, are administered. Another example of an animal tumor model of pancreatic cancer involves the generation of tumors in animals using BxPC-3 pancreatic adenocarcinoma cells (see e.g. Von Hoff et al. (2011) J. Clin. Oncol., 29:4548-54). […]\nIn other examples, tumor volume can be measured using an average of measurements of tumor diameter (D) obtained by caliper or ultrasound assessments. For example, tumor volume can be determined using VisualSonics Vevo 770 high-resolution ultrasound or other similar ultrasound. The volume can be determined from the formula V=D^3×π/6 (for diameter measured using calipers) or V=D^2×d×π/6 (for diameter measured using ultrasound where d is the depth or thickness). For example, caliper measurements can be made of the tumor length (l) and width (w) and tumor volume calculated as length×width^2×0.52. […] Tumor volumes can be determined by using available software (e.g., Amira 3.1 software; Mercury Computer Systems). […]"}, "[3]": {"settings": "Daddona and Kelley (1981); cited from earlier work"}, "[4]": {"test": "In vivo pharmacokinetics of rHuADA2, variants and PEGylated forms (Example 9)", "settings": "male BALB/c mice, 7.5 mg/kg intravenous", "description": "Fifty four (54) male BALB/c mice were divided into six (6) dosing groups, and were further divided into three (3) groups each for sampling of blood at different time points. Thus, the mice were randomized into eighteen (18) groups total. Mice were weighed prior to the start of the study, and randomized into the 18 groups based upon their body weights. In each sampling group, three groups of (3) mice were used for dosing each test article to prevent oversampling of the blood from the animals. For measurement of baseline ADA2 levels, a blood sample was obtained from 12 randomly chosen mice and plasma was prepared using the anti-coagulant potassium (K3) ethylene diamine tetraacetic acid (K3-EDTA). All blood was collected by submandibular venipuncture.\nEach mouse was injected by intravenous tail-vein injection with a 7.5 mg/kg dose of one of six ADA2 test article as set forth in Table 24, i.e. rHuADA2-K374D (K371D by mature numbering), PEG-rHuADA2-K374D (PEG-K371D by mature numbering), rHuADA2-R23E (R20E by mature numbering), PEG-rHuADA2-R23E (PEG-R20E by mature numbering), or WT ADA2 and PEG-WT ADA2.\nBlood was collected at designated sampling time points from appropriate groups of mice as indicated below in Table 24 and kept on ice until plasma preparation. Plasma was prepared by centrifuging the blood (500×g for 5 min at 4° C.), transferring the plasma to a fresh tube and immediately freezing at −80° C. until the adenosine deaminase activity assay. Adenosine deaminase activity was determined as described in Example 4. The half-life, or time taken for the activity of ADA2 proteins to be reduced by half, was calculated. Also, total exposure was measured by calculating the Area Under the Concentration-time Curve (AUC)."}, "[5]": {"system": "CT26 murine colon cancer tumor", "test": "Tumor growth inhibition, CT26 syngeneic tumor model", "assay_type": "in vivo, BALB/c mice", "experimental": "Forty-four (44) male BALB/c mice were inoculated subcutaneously with 5×10^6 murine colon cancer tumor cells (CT26, ATCC CRL-2638) in 0.1 mL injection volume per animal. Tumor volume was determined using digital calipers by caliper measurement of the length (L) and width (W) of the solid tumor masses. Tumor volume (TV) was calculated as: (L×W^2)/2. Tumors were allowed to grow and tumor bearing mice were staged until when the tumors were palpable and measured to be about 50-100 mm^3.\nPEGylated rHuADA2-K374D (K371D by mature numbering) was prepared as described in Example 8.A, with minor modifications to generate a preparation in which approximately 100% of the molecules were PEGylated as assessed by SDS-PAGE.\nFor treatment, animals were randomized into four groups (n=8/group). CT26 tumor bearing mice were then injected intravenously (IV) every other day, at 3 mg/kg body weight, 10 mg/kg body weight or 30 mg/kg body weight doses of PEG-K374D (PEG-K371D by mature numbering) or vehicle control (buffer only) every other day. Tumor volume was measured at day 0 and 8 using caliper measurement as described above. […] One mouse from the vehicle group was excluded due to significant tumor growth inhibition."}, "[6]": {"settings": "day 8; 3 mg/kg IV every other day"}, "[7]": {"settings": "day 8; 10 mg/kg IV every other day"}, "[8]": {"settings": "day 8; 30 mg/kg IV every other day"}}, "note": "Changes are numbered by the printed parent chain. Numbers in names are those of the source. Entries after “also recorded” stand apart in the source; their conditions may differ.", "data": [{"molecule": "B1", "values": [{"measurement": "reversal of adenosine-mediated immunosuppression", "setting": "[1]", "value": "reverse the adenosine-dependent immunosuppression; also recorded: reversed"}, {"measurement": "tumor growth in vivo", "setting": "[2]", "value": "reduce tumor growth"}, {"measurement": "stability at higher temperature", "setting": "[3]", "value": "substantially more stable at higher temperature compared to ADA1"}]}, {"molecule": "B2", "values": [{"measurement": "Half life slow (t1/2)", "setting": "[4]", "value": 2.52, "unit": "h"}, {"measurement": "Percent increase in AUC compared to WT ADA2", "setting": "[4]; vs non-PEGylated WT", "value": 19, "unit": "%"}, {"measurement": "Percent increase in t1/2 compared to WT ADA2", "setting": "[4]; vs non-PEGylated WT", "value": 119, "unit": "%"}]}, {"molecule": "B3", "values": [{"measurement": "Average Tumor Volume", "setting": "[5]; 3 mg/kg IV every other day; day 8", "value": 257.72, "unit": "mm^3"}, {"measurement": "Tumor Growth Inhibition", "setting": "[5]; 3 mg/kg IV every other day; day 8; vs vehicle", "value": 50, "unit": "%"}, {"measurement": "Average Tumor Volume", "setting": "[5]; 10 mg/kg IV every other day; day 8", "value": 207.84, "unit": "mm^3"}, {"measurement": "Tumor Growth Inhibition", "setting": "[5]; 10 mg/kg IV every other day; day 8; vs vehicle", "value": 63, "unit": "%"}, {"measurement": "Average Tumor Volume", "setting": "[5]; 30 mg/kg IV every other day; day 8", "value": 187.32, "unit": "mm^3"}, {"measurement": "Tumor Growth Inhibition", "setting": "[5]; 30 mg/kg IV every other day; day 8; vs vehicle", "value": 68, "unit": "%"}, {"measurement": "Average Tumor Volume", "setting": "[5]; [6]", "value": 257.72, "unit": "mm^3"}, {"measurement": "tumor growth inhibition (TGI)", "setting": "[5]; [6]", "value": 50, "unit": "%"}, {"measurement": "Average Tumor Volume", "setting": "[5]; [7]", "value": 207.84, "unit": "mm^3"}, {"measurement": "tumor growth inhibition (TGI)", "setting": "[5]; [7]", "value": 63, "unit": "%"}, {"measurement": "Average Tumor Volume", "setting": "[5]; [8]", "value": 187.32, "unit": "mm^3"}, {"measurement": "tumor growth inhibition (TGI)", "setting": "[5]; [8]", "value": 68, "unit": "%"}]}, {"molecule": "B4", "values": [{"measurement": "Half life slow (t1/2)", "setting": "[4]", "value": 1.15, "unit": "h"}]}]}
